Among the data in paper PMC4751435 (2016) are response values, retold here.

To fix the notation:
B1: luciferase-FOXP2 (wild-type, full-length 1-715) [human] / YFP-PIAS3 [human] (parent complex)
chain 1: MMQESATETISNSSMNQNGMSTLSSQLDAGSRDGRSSGDTSSEVSTVELLHLQQQQALQAARQLLLQQQTSGLKSPKSSDKQRPLQVPVSVAMMTPQVITPQQMQQILQQQVLSPQQLQALLQQQQAVMLQQQQLQEFYKKQQEQLHLQLLQQQQQQQQQQQQQQQQQQQQQQQQQQQQQQQQQQQQQQQQHPGKQAKEQQQQQQQQQQLAAQQLVFQQQLLQMQQLQQQQHLLSLQRQGLISIPPGQAALPVQSLPQAGLSPAEIQQLWKEVTGVHSMEDNGIKHGGLDLTTNNSSSTTSSNTSKASPPITHHSIVNGQSSVLSARRDSSSHEETGASHTLYGHGVCKWPGCESICEDFGQFLKHLNNEHALDDRSTAQCRVQMQVVQQLEIQLSKERERLQAMMTHLHMRPSEPKPSPKPLNLVSSVTMSKNMLETSPQSLPQTPTTPTAPVTPITQGPSVITPASVPNVGAIRRRHSDKYNIPMSSEIAPNYEFYKNADVRPPFTYATLIRQAIMESSDRQLTLNEIYSWFTRTFAYFRRNAATWKNAVRHNLSLHKCFVRVENVKGAVWTVDEVEYQKRRSQKITGSPTLVKNIPTSLGYGAALNASLQAALAESSLPLLSNPGLINNASSGLLQAVHEDLNGSLDHIDSNGNSSPGCSPQPHIHSIHVKEEPVIAEDEDCPMSLVTTANHSPELEDDREIEEEPLSEDLE
chain 2: MAELGELKHMVMSFRVSELQVLLGFAGRNKSGRKHELLAKALHLLKSSCAPSVQMKIKELYRRRFPRKTLGPSDLSLLSLPPGTSPVGSPGPLAPIPPTLLAPGTLLGPKREVDMHPPLPQPVHPDVTMKPLPFYEVYGELIRPTTLASTSSQRFEEAHFTFALTPQQVQQILTSREVLPGAKCDYTIQVQLRFCLCETSCPQEDYFPPNLFVKVNGKLCPLPGYLPPTKNGAEPKRPSRPINITPLARLSATVPNTIVVNWSSEFGRNYSLSVYLVRQLTAGTLLQKLRAKGIRNPDHSRALIKEKLTADPDSEVATTSLRVSLMCPLGKMRLTVPCRALTCAHLQSFDAALYLQMNEKKPTWTCPVCDKKAPYESLIIDGLFMEILSSCSDCDEIQFMEDGSWCPMKPKKEASEVCPPPGYGLDGLQYSPVQGGDPSENKKKVEVIDLTIESSSDEEDLPPTKKHCSVTSAAIPALPGSKGVLTSGHQPSSVLRSPAMGTLGGDFLSSLPLHEYPPAFPLGADIQGLDLFSFLQTESQHYGPSVITSLDEQDALGHFFQYRGTPSHFLGPLAPTLGSSHCSATPAPPPGRVSSIVAPGGALREGHGGPLPSGPSLTGCRSDIISLD
B2: luciferase-FOXP2 (wild-type, full-length 1-715) [human] / YFP-PIAS1 (wild-type) [human] (parent complex)
chain 1: B1 chain 1
chain 2: MADSAELKQMVMSLRVSELQVLLGYAGRNKHGRKHELLTKALHLLKAGCSPAVQMKIKELYRRRFPQKIMTPADLSIPNVHSSPMPATLSPSTIPQLTYDGHPASSPLLPVSLLGPKHELELPHLTSALHPVHPDIKLQKLPFYDLLDELIKPTSLASDNSQRFRETCFAFALTPQQVQQISSSMDISGTKCDFTVQVQLRFCLSETSCPQEDHFPPNLCVKVNTKPCSLPGYLPPTKNGVEPKRPSRPINITSLVRLSTTVPNTIVVSWTAEIGRNYSMAVYLVKQLSSTVLLQRLRAKGIRNPDHSRALIKEKLTADPDSEIATTSLRVSLLCPLGKMRLTIPCRALTCSHLQCFDATLYIQMNEKKPTWVCPVCDKKAPYEHLIIDGLFMEILKYCTDCDEIQFKEDGTWAPMRSKKEVQEVSASYNGVDGCLSSTLEHQVASHHQSSNKNKKVEVIDLTIDSSSDEEEEEPSAKRTCPSLSPTSPLNNKGILSLPHQASPVSRTPSLPAVDTSYINTSLIQDYRHPFHMTPMPYDLQGLDFFPFLSGDNQHYNTSLLAAAAAAVSDDQDLLHSSRFFPYTSSQMFLDQLSAGGSTSLPTTNGSSSGSNSSLVSSNSLRESHSHTVTNRSSTDTASIFGIIPDIISLD
B3: luciferase-FOXP2 (wild-type, full-length 1-715) [human] / YFP-PIAS2 [human] (parent complex)
chain 1: B1 chain 1
chain 2: MADFEELRNMVSSFRVSELQVLLGFAGRNKSGRKHDLLMRALHLLKSGCSPAVQIKIRELYRRRYPRTLEGLSDLSTIKSSVFSLDGGSSPVEPDLAVAGIHSLPSTSVTPHSPSSPVGSVLLQDTKPTFEMQQPSPPIPPVHPDVQLKNLPFYDVLDVLIKPTSLVQSSIQRFQEKFFIFALTPQQVREICISRDFLPGGRRDYTVQVQLRLCLAETSCPQEDNYPNSLCIKVNGKLFPLPGYAPPPKNGIEQKRPGRPLNITSLVRLSSAVPNQISISWASEIGKNYSMSVYLVRQLTSAMLLQRLKMKGIRNPDHSRALIKEKLTADPDSEIATTSLRVSLMCPLGKMRLTIPCRAVTCTHLQCFDAALYLQMNEKKPTWICPVCDKKAAYESLILDGLFMEILNDCSDVDEIKFQEDGSWCPMRPKKEAMKVSSQPCTKIESSSVLSKPCSVTVASEASKKKVDVIDLTIESSSDEEEDPPAKRKCIFMSETQSSPTKGVLMYQPSSVRVPSVTSVDPAAIPPSLTDYSVPFHHTPISSMSSDLPGLDFLSLIPVDPQYCPPMFLDSLTSPLTASSTSVTTTSSHESSTHVSSSSSRSETGVITSSGSNIPDIISLD
B4: luciferase-FOXP2 (wild-type, full-length 1-715) [human] / YFP-PIAS4 [human] (parent complex)
chain 1: B1 chain 1
chain 2: MAAELVEAKNMVMSFRVSDLQMLLGFVGRSKSGLKHELVTRALQLVQFDCSPELFKKIKELYETRYAKKNSEPAPQPHRPLDPLTMHSTYDRAGAVPRTPLAGPNIDYPVLYGKYLNGLGRLPAKTLKPEVRLVKLPFFNMLDELLKPTELVPQNNEKLQESPCIFALTPRQVELIRNSRELQPGVKAVQVVLRICYSDTSCPQEDQYPPNIAVKVNHSYCSVPGYYPSNKPGVEPKRPCRPINLTHLMYLSSATNRITVTWGNYGKSYSVALYLVRQLTSSELLQRLKTIGVKHPELCKALVKEKLRLDPDSEIATTGVRVSLICPLVKMRLSVPCRAETCAHLQCFDAVFYLQMNEKKPTWMCPVCDKPAPYDQLIIDGLLSKILSECEDADEIEYLVDGSWCPIRAEKERSCSPQGAILVLGPSDANGLLPAPSVNGSGALGSTGGGGPVGSMENGKPGADVVDLTLDSSSSSEDEEEEEEEEEDEDEEGPRPKRRCPFQKGLVPAC

One experiment covers variants of B1. The experiment can be described thus: BRET; HEK293 cells; n = 3; control donor (nuclear-targeted luciferase) est. -0.003; read off a plot.
For the variant chain 1 R553H, the response was around 0.026 BRET ratio.

Variants of B1 are the subject of another experiment. As to the kind of experiment: BRET; control donor est. 0.040; read off a plot. For orientation: BRET reads energy transfer from a luciferase to a nearby fluorophore.
On to chain 1 K674R, for which the response is around 0.087 BRET ratio.

The variants in a further experiment derive from B2. As to the kind of experiment: BRET; control donor est. 0.036; read off a plot.
For the variant chain 1 K674R, the response was around 0.11 BRET ratio.

The variants in the next experiment derive from B2. The experiment can be described thus: BRET; HEK293 cells; n = 3; control donor (nuclear-targeted luciferase) est. 0.000; read off a plot.
chain 1 R553H: the response is around 0.014 BRET ratio.

A further experiment covers variants of B3. As to the kind of experiment: BRET; HEK293 cells; n = 3; control donor (nuclear-targeted luciferase) est. -0.008; read off a plot.
Regarding chain 1 R553H, the response was around -0.005 BRET ratio.

The variants in another experiment derive from B3. The experiment can be described thus: BRET; control donor est. 0.030; read off a plot.
For chain 1 K674R, the response is around 0.047 BRET ratio.

Variants of B4 are the subject of another experiment. The experiment can be described thus: BRET; control donor est. 0.026; read off a plot.
Take chain 1 K674R: the response is around 0.071 BRET ratio.

Another experiment covers variants of B4. As to the kind of experiment: BRET; HEK293 cells; n = 3; control donor (nuclear-targeted luciferase) est. 0.001; read off a plot.
Turning to chain 1 R553H, the response was around -0.006 BRET ratio.
